The assay deals with ZIKV sE-WT protein (Zika virus). Put plainly: SPR (BIOCORE8000), sE amine-coupled on CM5 chip, antibody as mobile phase.

As for 2A10G6 antibody, the Kd (as a rule, the free concentration of one partner at which half of the binding sites on the other are occupied at equilibrium, for simple one-to-one binding) came to 9.13 nM.

These data come from patent US12642846B2.
